Read-outs that look alike come from different tables or passages of the source.
B1: PKC-theta Wt probe I (dsDNA)
DNA 1: CAAATGCCTGGGGTAGGTCA
DNA 2: TGACCTACCCCAGGCATTTG
B2: PKC-theta Wt probe III (dsDNA)
DNA 1: ATGAGCCACCGCACCTGGCC
DNA 2: GGCCAGGTGCGGTGGCTCAT

What was measured:
RUNX1 (recombinant) [1] = target: T1, RUNX1 (recombinant) (UniProt Q01196 1-453); test: EMSA, supershift
RUNX1 (recombinant) [2] = target: T1, RUNX1 (recombinant); test: EMSA, supershift; remark: listed apart in the source

T1 sequence (Q01196 whole entry): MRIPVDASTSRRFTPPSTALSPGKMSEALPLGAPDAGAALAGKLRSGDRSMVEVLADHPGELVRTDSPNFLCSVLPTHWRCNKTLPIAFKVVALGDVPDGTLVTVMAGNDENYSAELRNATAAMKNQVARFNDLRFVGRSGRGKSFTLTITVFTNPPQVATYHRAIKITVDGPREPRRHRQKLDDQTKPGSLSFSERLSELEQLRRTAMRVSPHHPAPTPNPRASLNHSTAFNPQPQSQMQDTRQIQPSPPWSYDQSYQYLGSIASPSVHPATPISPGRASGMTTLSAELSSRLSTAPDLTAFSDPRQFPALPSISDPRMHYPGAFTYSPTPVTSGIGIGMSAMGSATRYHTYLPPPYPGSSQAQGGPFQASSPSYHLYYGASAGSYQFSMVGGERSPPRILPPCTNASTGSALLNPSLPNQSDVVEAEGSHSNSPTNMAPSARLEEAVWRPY

Binder | binding result (RUNX1 (recombinant) [1]) | binding result (RUNX1 (recombinant) [2])
B1 | binds | –
B2 | – | binds
